In patent US8748182B2, “Mutant proteins and methods for producing them” (Heptares Therapeutics Limited, priority 2007, dated 2014):
Values joined by “and” are separate entries in the source; they are usually repeats but may differ in a detail not shown here. Equal values may be shown once. Where a name gives a salt, the structure may show the parent alone. Read-outs that look alike come from different tables or passages of the source.

Tests used:
βAR-m23 [1] = biological target: T1, βAR-m23 (Meleagris gallopavo, UniProt P07700, A282L/C116L/F327A/F338M/M90V/R68S/Y227A); type: binding, turkey
[2] = Stability of βAR-m23 and βAR34-424 in different detergents (Ni-NTA partially purified); type: physicochemical
Method: FIGS. 6A-6C Stability of βAR-m23 and βAR34-424 in five different detergents. […] Assays were carried out as described in the Methods and the Tm is shown at the intersection between the curves and the discontinuous line. Results are from duplicate measurements in a representative experiment performed in parallel.
Membranes prepared from E. coli expressing βAR-m23 or βAR34-424 were solubilised in DDM, bound to Ni-NTA agarose then washed with either DDM, decylmaltoside (DM), octylglucoside (OG), lauryldimethylamine oxide (LDAO) or nonylglucoside (NG). […] In contrast, functional βAR-m23 was still present in all detergents and the Tm could be determined. As expected, the smaller detergents were considerably more denaturing than either DDM (Tm 52° C.) or DM (Tm 48° C.), with Tms of 25° C. (NG), 23° C. (LDAO) and 17° C. (OG). The difference in Tm between βAR-m23 and βAR34-424 is about 20° C., irrespective of whether the receptors were solubilised in either DDM or DM; […] . The selection strategy used for the generation of βAR-m23 was chosen deliberately to be based upon thermostability, because it is far simpler to apply than selecting for stability in detergents of increasing harshness.
Receptors were eluted in 2×100 μl of buffer (0.4 M NaCl, 1 mM EDTA, 250 mM imidazole pH 8, plus the relevant detergent). […] .
Single point binding assays contained 20 mM Tris pH 8, 0.4 M NaCl, 1 mM EDTA, 0.1% DDM (or corresponding detergent) with 50 nM [^3H]-DHA and 20-100 μg membrane protein in a final volume of 120 μl; equilibration was for 1 h at 4° C. Thermostability was assessed by incubating the binding assay mix, with or without [^3H]-DHA at the specified temperature for 30 minutes; reactions were placed on ice and [^3H]-DHA added as necessary and equilibrated for a further hour. Receptor-bound and free radioligand were separated by gel filtration as described previously. Non-specific binding was determined in the presence of 1 μM of s-propranolol. […] Radioactivity was counted on a Beckman LS6000 liquid scintillation counter and data were analyzed by nonlinear regression using Prism software (GraphPad).

[3] = Thermostability assay of detergent-solubilised βAR34-424 and mutants expressed in E. coli ([3H]-DHA binding after heating 30 min)
Method: To determine Tm in the absence of ligand (apo-state, discontinuous lines), detergent-solubilised receptors were incubated for 30 minutes at the temperatures indicated before carrying out the binding assay. […] Data points are from duplicates measurements in a representative experiment.
Binding assays were performed using [^3H]-dihydroalprenolol (DHA) as radioligand as described under “Methods”. Samples were heated for 30 minutes at different temperatures before the assay. […] Data points are from duplicates of one single experiment. This experiment has been repeated several times with similar results.
Expression of βAR and the mutants was performed in XL10 cells (Stratagene). Cultures of 50 ml of 2×TY medium containing ampicillin (100 μg/ml) were grown at 37° C. with shaking until OD600=3 and then induced with 0.4 mM IPTG. Induced cultures were incubated at 25° C. for 4 h and then cells were harvested by centrifugation at 13,000×g for 1 min (aliquots of 2 ml) and stored at −20° C. For the assays, cells were broken by freeze-thaw (five cycles), resuspended in 500 μl of buffer [20 mM Tris pH 8, 0.4 M NaCl, 1 mM EDTA and protease inhibitors (Complete™, Roche)]. After an incubation for 1 h at 4° C. with 100 μg/ml lysozyme and DNase I (Sigma), samples were solubilized with 2% DDM on ice for 30 minutes. Insoluble material was removed by centrifugation (15,000×g, 2 min, 4° C.) and the supernatant was used directly in radioligand binding assays.
Single point binding assays contained 20 mM Tris pH 8, 0.4 M NaCl, 1 mM EDTA, 0.1% DDM (or corresponding detergent) with 50 nM [^3H]-DHA and 20-100 μg membrane protein in a final volume of 120 μl; equilibration was for 1 h at 4° C. Thermostability was assessed by incubating the binding assay mix, with or without [^3H]-DHA at the specified temperature for 30 minutes; reactions were placed on ice and [^3H]-DHA added as necessary and equilibrated for a further hour. […] Radioactivity was counted on a Beckman LS6000 liquid scintillation counter and data were analyzed by nonlinear regression using Prism software (GraphPad).

βAR-m23 [4] = biological target: T1, βAR-m23; assay: biochemical; type: binding, turkey
[5] = Thermostability of solubilised adenosine A2a receptor and mutants (radioligand binding after or during heating); type: physicochemical
In short: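 Solubilised A2aR mutants heated, then assayed for agonist and antagonist radioligand binding after the heating step (ligand(−) format); a ligand(+) format was also used. Thermostability expressed as Tm (° C), with ZM241385 bound where indicated.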

[6] = Stability of wild-type and mutant A2aR in different detergents; type: physicochemical
[7] = [3H]-DHA bound during the heating step
[8] = 1% DDM (no glycerol), apo-state, S.D. <1° C.
[9] = 1% DDM (no glycerol), ligand-occupied state, S.D. <1° C.
[10] = 0.3% NG, † = receptor too unstable to determine the Tm
[11] = 0.6% OG, † = receptor too unstable to determine the Tm

T1 sequence (P07700 34-424 R68S/M90V/C116L/Y227A/A282L/F327A/F338M): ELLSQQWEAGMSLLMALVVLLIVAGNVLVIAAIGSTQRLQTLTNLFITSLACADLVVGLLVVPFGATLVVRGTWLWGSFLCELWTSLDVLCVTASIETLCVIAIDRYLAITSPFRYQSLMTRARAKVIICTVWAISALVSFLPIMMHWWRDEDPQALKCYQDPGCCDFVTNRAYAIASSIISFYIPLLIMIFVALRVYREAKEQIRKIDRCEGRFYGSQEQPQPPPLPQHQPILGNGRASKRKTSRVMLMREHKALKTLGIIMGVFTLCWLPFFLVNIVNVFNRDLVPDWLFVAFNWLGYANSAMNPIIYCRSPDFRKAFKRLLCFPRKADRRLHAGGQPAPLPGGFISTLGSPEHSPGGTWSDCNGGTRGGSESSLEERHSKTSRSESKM

1-[4,6-propyl-^3H]-dihydroalprenolol [[^3H]-dihydroalprenolol]
Kd (βAR-m23 [1]; membranes, n=2, read-out: KD of [3H]-dihydroalprenolol): 6.5 ± 0.2 nM
Kd (βAR-m23 [1]; semipurified receptor, read-out: KD for [3H]-DHA binding): 12.5 nM

m23: βAR34-424 with R68S, M90V, Y227A, A282L, F327A, F338M
Tm in DDM ([2]; DDM): 52 °C
Tm in DM ([2]; DM (decylmaltoside)): 48 °C
Tm in LDAO ([2]; LDAO): 23 °C
Tm in NG ([2]; NG (nonylglucoside)): 25 °C
Tm in OG ([2]; OG (octylglucoside)): 17 °C
difference in Tm between βAR-m23 and βAR34-424 ([2]; solubilised in either DDM or DM): about 20 °C
increase in Tm compared to βAR34-424 (native protein) ([3]; DDM-solubilised, heated without ligand): 21 °C
Tm (° C.) ([3]; Table 2, heated 30 min without ligand, then [3H]-DHA binding, DDM-solubilised, E. coli, mean ± S.E. from duplicates): 52.8 °C and 52.8 ± 1.4 °C
Tm with antagonist bound [3, 7]: 55 °C
increase in Tm with bound antagonist versus without antagonist [3, 7]: 2 °C
further increase in Tm on adding one mutation to the preceding mutant ([3]; m4-1 to m4-7 to m4-2, m18 to m23): 3 °C

C=CCc1ccccc1OC[C@@H](O)CNC(C)C [alprenolol, (−) alprenolol tartrate salt]
EC50 (βAR-m23 [4]): 112 nM

wt: wild-type human adenosine A2a receptor (A2aR)
Tm (° C.) − agonist [5, 8]: 21 °C
Tm (° C.) − antagonist [5, 8]: 31 °C
Tm (° C.) + agonist [5, 9]: 29 °C
Tm (° C.) + antagonist [5, 9]: 32 °C
Tm (ZM241385 bound) [5]: 31 °C
Tm (° C.) Agonist-binding ([6]; 0.003% LDAO): 28 °C
Tm (° C.) Antagonist-binding ([6]; 0.003% LDAO): 32 °C
Tm (° C.) Agonist-binding ([6]; 0.006% FC12): 37 °C
Tm (° C.) Antagonist-binding ([6]; 0.006% FC12): 43 °C
Tm (° C.) Agonist-binding ([6]; 0.01% DDM): 27 °C
Tm (° C.) Antagonist-binding ([6]; 0.01% DDM): 25 °C
Tm (° C.) Agonist-binding ([6]; 0.1% DM): 23 °C
Tm (° C.) Antagonist-binding ([6]; 0.1% DM): 10 °C
Tm (° C.) Agonist-binding [6, 10]: †
Tm (° C.) Antagonist-binding [6, 10]: †
Tm (° C.) Agonist-binding ([6]; 0.3% NM): 22 °C
Tm (° C.) Antagonist-binding ([6]; 0.3% NM): <4 °C
Tm (° C.) Agonist-binding ([6]; 0.6% OG): <9 °C
Tm (° C.) Antagonist-binding [6, 11]: †

B1: Rant 21: A2aR with A54L, T88A, V239A+K122A (protein, UniProt P29274 1-412, looked up, variant A54L T88A V239A K122A)
Adenosine receptor A2a: MPIMGSSVYITVELAIAVLAILGNVLVCWAVWLNSNLQNVTNYFVVSLAAADILVGVLAIPFAITISTGFCAACHGCLFIACFVLVLAQSSIFSLLAIAIDRYIAIRIPLRYNGLVTGTRAAGIIAICWVLSFAIGLTPMLGWNNCGQPKEGKNHSQGCGEGQVACLFEDVVPMNYMVYFNFFACVLVPLLLMLGVYLRIFLAARRQLKQMESQPLPGERARSTLQKEVHAAKSLAIIAGLFALCWLPLHIINCFTFFCPDCSHAPLWLMYLAIVLSHTNSVVNPFIYAYRIREFRQTFRKIIRSHVLRQQEPFKAAGTSARVLAAHGSDGEQVSLRLNGHPPGVWANGSAPHPERRPNGYALGLVSGGSAQESQGNTGLPDVELLSHELKGVCPEPPGLDDPLAQDGAGVS
Tm (° C.) − antagonist [5, 8]: 41 °C
Tm (° C.) + antagonist [5, 9]: 49 °C
Tm (ZM241385 bound) [5]: 49 °C
Tm (° C.) Antagonist-binding ([6]; 0.003% LDAO): 42 °C
Tm (° C.) Antagonist-binding ([6]; 0.006% FC12): 49 °C
Tm (° C.) Antagonist-binding ([6]; 0.01% DDM): 39 °C
Tm (° C.) Antagonist-binding ([6]; 0.1% DM): 28 °C
Tm (° C.) Antagonist-binding [6, 10]: 22 °C
Tm (° C.) Antagonist-binding ([6]; 0.3% NM): 25 °C
Tm (° C.) Antagonist-binding [6, 11]: 23 °C
